Reference: article PMC8091128

Target: T1, α-catenin (cleaved from GST–α-catenin), P35221
T1 chain: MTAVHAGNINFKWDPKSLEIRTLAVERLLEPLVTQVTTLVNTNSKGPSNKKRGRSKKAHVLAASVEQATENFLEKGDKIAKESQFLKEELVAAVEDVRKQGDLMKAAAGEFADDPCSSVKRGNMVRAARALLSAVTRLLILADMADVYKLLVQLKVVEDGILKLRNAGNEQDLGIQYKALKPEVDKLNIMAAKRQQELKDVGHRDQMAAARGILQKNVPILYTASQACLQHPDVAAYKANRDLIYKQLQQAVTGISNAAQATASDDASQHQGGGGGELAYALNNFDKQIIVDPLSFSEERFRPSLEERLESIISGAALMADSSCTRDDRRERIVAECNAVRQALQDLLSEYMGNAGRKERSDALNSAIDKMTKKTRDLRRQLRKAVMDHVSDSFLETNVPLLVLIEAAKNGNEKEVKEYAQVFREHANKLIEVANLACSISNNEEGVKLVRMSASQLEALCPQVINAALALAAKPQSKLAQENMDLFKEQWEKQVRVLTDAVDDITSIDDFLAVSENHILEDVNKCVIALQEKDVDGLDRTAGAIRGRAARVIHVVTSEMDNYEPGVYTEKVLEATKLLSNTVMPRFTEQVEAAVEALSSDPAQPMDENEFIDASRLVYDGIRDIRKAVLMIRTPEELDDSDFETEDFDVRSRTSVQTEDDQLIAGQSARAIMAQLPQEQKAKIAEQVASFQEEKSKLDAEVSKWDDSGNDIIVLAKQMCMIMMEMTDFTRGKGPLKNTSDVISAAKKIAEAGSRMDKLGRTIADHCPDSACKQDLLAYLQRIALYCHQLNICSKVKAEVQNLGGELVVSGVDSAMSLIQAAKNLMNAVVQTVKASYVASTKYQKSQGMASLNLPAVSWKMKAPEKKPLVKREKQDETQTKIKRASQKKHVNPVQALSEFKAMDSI
Experiment: GST pull-down (in vitro reconstitution of cadherin complex), blot quantification
Conditions: chain shown with the change;; parent: est. 1.0; read off a plot

B1: GST–β-catenin WT, P35222 S675D (protein)
chain: MATQADLMELDMAMEPDRKAAVSHWQQQSYLDSGIHSGATTTAPSLSGKGNPEEEDVDTSQVLYEWEQGFSQSFTQEQVADIDGQYAMTRAQRVRAAMFPETLDEGMQIPSTQFDAAHPTNVQRLAEPSQMLKHAVVNLINYQDDAELATRAIPELTKLLNDEDQVVVNKAAVMVHQLSKKEASRHAIMRSPQMVSAIVRTMQNTNDVETARCTAGTLHNLSHHREGLLAIFKSGGIPALVKMLGSPVDSVLFYAITTLHNLLLHQEGAKMAVRLAGGLQKMVALLNKTNVKFLAITTDCLQILAYGNQESKLIILASGGPQALVNIMRTYTYEKLLWTTSRVLKVLSVCSSNKPAIVEAGGMQALGLHLTDPSQRLVQNCLWTLRNLSDAATKQEGMEGLLGTLVQLLGSDDINVVTCAAGILSNLTCNNYKNKMMVCQVGGIEALVRTVLRAGDREDITEPAICALRHLTSRHQEAEMAQNAVRLHYGLPVVVKLLHPPSHWPLIKATVGLIRNLALCPANHAPLREQGAIPRLVQLLVRAHQDTQRRTSMGGTQQQFVEGVRMEEIVEGCTGALHILARDVHNRIVIRGLNTIPLFVQLLYSPIENIQRVAAGVLCELAQDKEAAEAIEAEGATAPLTELLHSRNEGVATYAAAVLFRMSEDKPQDYKKRLDVELTSSLFRTEPMAWNETADLGLDIGAQGEPLGYRQDDPSYRSFHSGGYGQDALGMDPMMEHEMGGHHPGADYPVDGLPDLGHAQDLMDGLPPGDSNQLAWFDTDL
  ratio to parent: 1.1 fold change
